# Laboratory results: US20090042235A1, “PHOTOREGULATED PEPTIDE, AND METHOD FOR REGULATION OF PEPTIDE-PROTEIN COMPLEX FORMATION USING THE PHOTOREGULATED PEPTIDE” (priority 2005, published 2009)
# Bridge positions count the residues as written; N and C are the ends. Ends that are not written are not given here. DBMNB = photocleavable intramolecular cysteine cross-linker
# Target: T1, PI3-Kα SH3 domain (Homo sapiens, UniProt P27986)
# T1 construct: As a functional protein, an SH3 domain protein of PI3-Kα was used
# T1 sequence (P27986 3-79 limits assumed): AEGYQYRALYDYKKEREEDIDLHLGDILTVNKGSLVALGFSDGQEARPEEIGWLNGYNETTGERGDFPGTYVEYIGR
# Experiment: Circular dichroism (CD) differential spectra of peptide / PI3-Kα SH3 domain mixtures: photoregulation of peptide-protein complex formation
# Assay type: binding
# Procedure: As a functional protein, an SH3 domain protein of PI3-Kα was used. The PI3-Kα SH3 domain interacts with RLP1. The peptide having an intramolecular cross-linkage obtained in the manner as described above and the PI3-Kα SH3 domain were mixed in 10 mM phosphate buffer solution (pH 7.0), to obtain Mixture solution (I) in which the concentration of the peptide having an intramolecular cross-linkage was 100 microM and that of the PI3-Kα SH3 domain was 20 microM.
# Then, Mixture solution (I) was irradiated with UV light. Irradiation was performed by using Minilite II manufactured by Continuum as a UV irradiator, with pulsed light at wavelength of 355 nm (third harmonic of Nd-YAG laser, pulse width 5 ns, 10 Hz, pulse intensity 4 mJ/cm^2) at 4° C. for 30 minutes. By UV irradiation, either one of the bonds between cysteine and DBMNB in the peptide having an intramolecular cross-linkage was cleaved. This was named Mixture solution (II).
# Used sample solutions are shown below.
# (i) Mixture solution (I) (ii) Mixture solution (II) (iii) Uncross-linked peptide RLP1 100 microM (10 mM phosphate buffer solution, pH 7.0) (iv) Peptide having an intramolecular cross-linkage (not irradiated with UV light) 100 microM (10 mM phosphate buffer solution, pH 7.0) (v) PI3-Kα SH3 domain 20 microM (10 mM phosphate buffer solution, pH 7.0) (vi) Mixture solution prepared by mixing an uncross-linked peptide RLP1 and a PI3-Kα SH3 domain in 10 mM phosphate buffer solution (pH 7.0), so that the concentration of the uncross-linked peptide is 100 microM and that of the PI3-Kα SH3 domain is 20 microM.
# The horizontal axis of the graph represents wavelength of circularly polarized light (Wavelength/nm), and the vertical axis represents intensity of circular dichroism (Δθ/mdeg). In the graph of FIG. 7, “dark” represents different-al spectrum obtained by subtracting CD spectrum (iv) of the peptide having an intramolecular cross-linkage and CD spectrum (v) of the PI3-Kα SH3 domain from CD spectrum (i) of Mixture solution (I). Further, “light” represents differential spectrum obtained by subtracting CD spectrum (i) of Mixture solution (I) from CD spectrum (ii) of Mixture solution (II).
"differential CD spectrum of mixture with PI3-Kα SH3 domain minus peptide and SH3 domain spectra (peak ascribable to formation of complex) (uncross-linked peptide 100 microM, SH3 domain 20 microM, 10 mM phosphate buffer pH 7.0, no irradiation)","interaction with specific recognizing site of the PI3-Kα SH3 domain (differential CD spectrum ""dark"") (Mixture solution (I), not irradiated, peptide 100 microM, SH3 domain 20 microM, 10 mM phosphate buffer pH 7.0, room temperature)","differential CD spectrum ""light"" (Mixture solution (II) minus Mixture solution (I)) (after UV irradiation 355 nm pulsed light, 4° C., 30 minutes, peptide 100 microM, SH3 domain 20 microM, pH 7.0)",complex formation with PI3-Kα SH3 domain (after UV irradiation (cyclic structure dissociated)),Substance
positive peak was observed around 220 nm,–,–,–,"RKLPPRSK [RLP1, reference compound]"
–,no interaction,positive peak was observed around 220 nm,forms a complex,"peptide having an intramolecular cross-linkage: RLP1-2C (Cys Arg Lys Leu Pro Pro Arg Ser Lys Cys) intramolecularly cross-linked between its cysteines via photocleavable DBMNB, cyclic (CRKLPPRSKC; linker 1-10 via DBMNB)"
